Experimental data reported in paper PMC10558642 (2023).

B1: recombinant GPX4 protein (SPR and MST) (natural protein)
chain: MSLGRLCRLLKPALLCGALAAPGLAGTMCASRDDWRCARSMHEFSAKDIDGHMVNLDKYRGFVCIVTNVASQUGKTEVNYTQLVDLHARYAECGLRILAFPCNQFGKQEPGSNEEIKEFAAGYNVKFDMFSKICVNGDDAHPLWKWMKIQPKGKGILGNAIKWNFTKFLIDKNGCVVKRYGPMEEPLVIEKDLPHYF
B2: His-OTUD5 (natural protein)
chain: MTILPKKKPPPPDADPANEPPPPGPMPPAPRRGGGVGVGGGGTGVGGGDRDRDSGVVGARPRASPPPQGPLPGPPGALHRWALAVPPGAVAGPRPQQASPPPCGGPGGPGGGPGDALGAAAAGVGAAGVVVGVGGAVGVGGCCSGPGHSKRRRQAPGVGAVGGGSPEREEVGAGYNSEDEYEAAAARIEAMDPATVEQQEHWFEKALRDKKGFIIKQMKEDGACLFRAVADQVYGDQDMHEVVRKHCMDYLMKNADYFSNYVTEDFTTYINRKRKNNCHGNHIEMQAMAEMYNRPVEVYQYSTGTSAVEPINTFHGIHQNEDEPIRVSYHRNIHYNSVVNPNKATIGVGLGLPSFKPGFAEQSLMKNAIKTSEESWIEQQMLEDKKRATDWEATNEAIEEQVARESYLQWLRDQEKQARQVRGPSQPRKASATCSSATAAASSGLEEWTSRSPRQRSSASSPEHPELHAELGMKPPSPGTVLALAKPPSPCAPGTSSQFSAGADRATSPLVSLYPALECRALIQQMSPSAFGLNDWDDDEILASVLAVSQQEYLDSMKKNKVHRDPPPDKS
modifications: Red-tris-NTA dye on the His tag (MST only)

Legend:
[1] = target: B2; experiment: MST
[2] = target: B1; experiment: SPR

Row | Kd [1] [nM] | Kd [2] [nM] | Binder
1 | 230 |  | B1
2 |  | 720 | B2
